Target: hyperactive Tn5 transposase (EK54, MA56, LP372) expressed from pMIR86 (UniProt Q46731 Q46731:1-476, E54K,M56A,L372P)
Assay: cell_activity; NIH3T3 co-transfection
Conditions: tags: pCI mammalian expression vector; chain copies: 2; PshA I blunt-ended linear transposon, ME inverted repeats at both ends
Source text: C. Tn5 transposase expressed in eukaryotic cells increases the number of integration events. Plasmid pMIR86 encoding transposase was co-transfected into NIH3T3 cells with transposon plasmid pMIR136 (pSEAP-Tn). The pMIR136 was either linearized with PshA I to form the transposon (SEAP-Tn), or cut with Eco R V/Sse8387 I to remove Tn5 elements from the transposon (SEAP), or left supercoiled (pSEAP-Tn). Control reactions included the same transposon DNA samples but with pCI-Luc (Promega) instead of pMIR86. […] No increase in colonies was observed when linear transposon DNA lacking flanking recognition elements was used.

B1: SEAP-Tn linear transposon with mosaic ends (dsDNA)
DNA 1: CTGTCTCTTATACACATCT
DNA 2: AGATGTGTATAAGAGACAG
activity: 1.6 fold colonies vs control plasmid

From patent US20030143740, “Processes for transposase mediated integration into mammalian cells” (published 2003)
